Test system: transgenic mice overexpressing full-length Del-1
Experiment: In vivo gene transfer of human thermostable alkaline phosphatase gene (TransIT In Vivo Gene Delivery System) in Del-1 transgenic mice, serum AP activity
Set-up: species or system mouse
Details: tail vein injection of human thermostable alkaline phosphatase gene, serum 24 hours later, heat treated 65° C. 30 minutes, FIG. 5
Protocol: According to the ordinary method, transgenic mice in which cDNA of full-length Del-1 (i.e., DNA consisting of the nucleotide sequence represented by SEQ ID NO: 9) is overexpressed were prepared (see Hidai et al., Anatomical Record A, vol. 287A, pp. 1165-1175). Del-1 protein produced in cells of the transgenic mice is a protein having the amino acid sequence represented by SEQ ID NO: 10 (including the signal peptide). Del-1 protein secreted from the cells to the outside thereof is a protein having an amino acid sequence consisting of amino acid residues at positions 26 to 480 in the amino acid sequence represented by SEQ ID NO: 10 (excluding the signal peptide). […] Using 20 μl of serum after the heat treatment, the activity of exogenous alkaline phosphatase (human thermostable alkaline phosphatase) was measured. In the measurement of the activity, 20 μl of serum was mixed with 200 μl of 1 mg/ml p-nitrophenyl phosphate, and after causing reaction at room temperature for 30 minutes to 1 hour, the absorbance at 405 nm was measured using a […] (BioRad). […]
Measurement values of the alkaline phosphatase activity are expressed by average value±SEM (standard error of the mean). The measurement values obtained from the control group into which alkaline phosphatase gene was not injected are regarded as 1, and the measurement values of the transgenic mice were calculated based thereon.

B1: full-length Del-1: Del-1 protein, SEQ ID NO: 10, overexpressed in transgenic mice; secreted form residues 26 to 480 (protein, listed as Mus musculus)
chain: MKHLVAAWLLVGLSLGVPQFGKGDICNPNPCENGGICLSGLADDSFSCECPEGFAGPNCSSVVEVASDEEKPTSAGPCIPNPCHNGGTCEISEAYRGDTFIGYVCKCPRGFNGIHCQHNINECEAEPCRNGGICTDLVANYSCECPGEFMGRNCQYKCSGPLGIEGGIISNQQITASSTHRALFGLRKWYPYYARLNKKGLINAWTAAENDRWPWIQINLQRKMRVTGVITQGAKRIGSPEYIKSYKIAYSNDGKTWAMYKVKGTNEEMVFRGNVDNNTPYANSFTPPIKAQYVRLYPQICRRHCTLRMELLGCELSGCSEPLGMKSGHIQDYQITASSVFRTLNMDMFTWEPRKARLDKQGKVNAWTSGHNDQSQWLQVDLLVPTKVTGIITQGAKDFGHVQFVGSYKLAYSNDGEHWMVHQDEKQRKDKVFQGNFDNDTHRKNVIDPPIYARFIRILPWSWYGRITLRSELLGCAEEE
exogenous alkaline phosphatase activity in serum, transgenic mouse (TG) vs wild-type mouse (WT): about twice as high as that of the wild-type mouse (WT)
